Laboratory results: patent publication US7524498
Several values for one entry are separate records, joined by “and”; a condition that tells them apart may be missing. Equal entries are not always repeated. Where two headings read alike, the source gives them in different places.

B1: humanized BATRHC/BATRκD γ1 mAb (antibody, V domains shown)
VH: QVQLVQSGSELKKPGASVKISCKASGYTFTNYGMNWVRQAPGQGLQWMGWINTDSGESTYAEEFKGRFVFSLDTSVNTAYLQITSLTAEDTGMYFCVRVGYDALDYWGQGTLVTVSS
VL: EIVLTQSPSSLSASVGDRVTITCSARSSVSYMHWFQQKPGKAPKLWIYRTSNLASGVPSRFSGSGSGTSYCLTINSLQPEDFATYYCQQRSSFPLTFGGGTKLEIK

Experiments:
[1] = target: BAT-1 antigen (human)
[2] = target: BAT-1 antigen (human); experiment: flow cytometry on non-activated human CD4+ T cells
[3] = target: BAT-1 antigen (human); experiment: flow cytometry on non-adherent PBL of a normal donor
[4] = target: BAT-1 antigen (human); experiment: flow cytometry on PBL of a prostate cancer patient, B cells
[5] = target: BAT-1 antigen (human); experiment: flow cytometry on PBL of a prostate cancer patient, CD4+ cells
[6] = target: BAT-1 antigen (human); experiment: flow cytometry on PBL of a prostate cancer patient, CD8+ cells
[7] = target: BAT-1 antigen (human); experiment: flow cytometry on human PBL of a selected normal donor, hBAT+ CD4+ cells
[8] = target: BAT-1 antigen (human); experiment: flow cytometry on human PBL of a selected normal donor, hBAT+ CD8+ cells
[9] = target: BAT-1 antigen (human); experiment: flow cytometry on non-adherent PBL of a normal donor, within CD19+ B cells
[10] = target: BAT-1 antigen (human); experiment: flow cytometry on non-adherent PBL of a normal donor, within CD20+ B cells
[11] = target: BAT-1 antigen (human); experiment: flow cytometry on human PBL of normal donors, 4° C. 1 hr, gated lymphocytes
[12] = target: BAT-1 antigen (human); remark: listed apart in the source
[13] = target: BAT-1 antigen (human); remark: listed apart in the source
[14] = target: BAT-1 antigen (human); experiment: flow cytometry on human PBL of a selected normal donor
[15] = target: BAT-1 antigen (human); experiment: flow cytometry on human PBL of a selected normal donor, within CD4+ cells
[16] = target: BAT-1 antigen (human); experiment: flow cytometry on human PBL of a selected normal donor, within CD8+ cells

Molecule	IC50 [1] [µg/mL]	% of CD4+ cells binding [2]	% of lymphocytes positive [3]	% of B cells bound [4] [%]	% of CD4+ cells bound [5] [%]	% of CD8+ cells bound [6] [%]	% of PBL positive (CD4+ cells) [7] [%]	% of PBL positive (CD8+ cells) [8] [%]	% of CD19+ cells positive [9] [%]	% of CD20+ cells positive [10] [%]	% of cells binding [11] [%]	Signal Strength [12]	% of CD4+ cells binding [13]	% of cells positive [14] [%]	% of CD4+ cells binding [15] [%]	% of CD8+ cells binding [16] [%]
humanized BATRHC/BATRκD γ1 mAb (antibody)	10	17% and 20%	25% and 29%	68	39	60	25	15	75	70	20					
B1												0	52% and 77%	50	58	71
